Drawing on patent US20080281082 (published 2008), this text covers Kd for 2 molecules.

This assay deals with Aβ (beta amyloid peptide) (human). Briefly: SPR.

B1: humanized 3D6v2 (antibody, V domains shown)
VH: EVQLLESGGGLVQPGGSLRLSCAASGFTFSNYGMSWVRQAPGKGLEWVASIRSGGGRTYYSDNVKGRFTISRDNSKNTLYLQMNSLRAEDTAVYYCVRYDHYSGSSDYWGQGTLVTVSS
VL: DVVMTQSPLSLPVTPGEPASISCKSSQSLLDSDGKTYLNWLLQKPGQSPQRLIYLVSKLDSGVPDRFSGSGSGTDFTLKISRVEAEDVGVYYCWQGTHFPRTFGQGTKVEIK
On to B1, for which the Kd (usually a measure of binding affinity in units of concentration) amounted to 2.24 nM.

B2: humanized 3D6v1 (antibody, V domains shown)
VH: EVQLLESGGGLVQPGGSLRLSCAASGFTFSNYGMSWVRQAPGKGLEWVASIRSGGGRTYYSDNVKGRFTISRDNAKNSLYLQMNSLRAEDTALYYCVRYDHYSGSSDYWGQGTLVTVSS
VL: YVVMTQSPLSLPVTPGEPASISCKSSQSLLDSDGKTYLNWLLQKPGQSPQRLIYLVSKLDSGVPDRFSGSGSGTDFTLKISRVEAEDVGVYYCWQGTHFPRTFGQGTKVEIK
In the case of B2, the dissociation constant Kd turned out to be 2.06 nM.
